Reference: patent US20240352445A1 (ABWIZ BIO, published 2024)

target: SARS-CoV-2 spike protein trimer, wild type (SARS-CoV-2, UniProt P0DTC2 16-1213); experiment: ELISA, purified IgG

Row | Binder | binding result
1 | SEQ ID NO 12 (antibody, V domains shown, also called selected clone from LxC libraries; LxC clone) VH: EVQLVESGGGLVQPGGSLRLSCTVSGFSLSTYAMSWVRQAPGKGLEWIGVIASNADTYYASWAKGRFTISRDNSKNTLYLQMNSLRAEDTAVYYCARHPGSAGYGYAVYYAMDPWGQGTLVTVSS VL: DIQMTQSPSSLSASVGDRVTITCQASQPIHYAINWYQQKPGKAPKLLIYGTSHRKMGVPSRFSGSGSGTDYTLTISSLQPEDFATYYCQQGYIVALKFGGGTKVEIK | binds
2 | SEQ ID NO 18 (antibody, V domains shown, As m4; also called selected clone from LxC libraries; LxC clone) VH: EVQLVESGGGLVQPGGSLRLSCTVSGFSLSTYAMSWVRQAPGKGLEWIGVIASNADTYYASWAKGRFTISRDNSKNTLYLQMNSLRAEDTAVYYCARHPGSAGYGYAVYYAMDPWGQGTLVTVSS VL: DIQMTQSPSSLSASVGDRVTITCKASEDIRYGLNWYQQKPGKAPKLLIYGGSYLRWGVPSRFSGSGSGTDYTLTISSLQPEDFATYYCQQGYRVPIRFGGGTKVEIK | binds
3 | SEQ ID NO 16 (antibody, V domains shown, As m4) VH: EVQLVESGGGLVQPGGSLRLSCTVSGFSLSTYAMSWVRQAPGKGLEWIGVIASNADTYYASWAKGRFTISRDNSKNTLYLQMNSLRAEDTAVYYCARHPGSAGYGYAVYYAMDPWGQGTLVTVSS VL: DIQMTQSPSSLSASVGDRVTITCQASQDVKYAINWYQQKPGKAPKLLIYGTSSRGEGVPSRFSGSGSGTDYTLTISSLQPEDFATYYCQQGYVVSIFFGGGTKVEIK | binds
4 | SEQ ID NO 17 (antibody, V domains shown, As m4) VH: EVQLVESGGGLVQPGGSLRLSCTVSGFSLSTYAMSWVRQAPGKGLEWIGVIASNADTYYASWAKGRFTISRDNSKNTLYLQMNSLRAEDTAVYYCARHPGSAGYGYAVYYAMDPWGQGTLVTVSS VL: DIQMTQSPSSLSASVGDRVTITCQASQPIYYGINWYQQKPGKAPKLLIYGHTYRAWGVPSRFSGSGSGTDFTLTISSLQPEDFATYYCQQGYRVGLGFGGGTKVEIK | binds
5 | SEQ ID NO 15 (antibody, V domains shown, As m4) VH: EVQLVESGGGLVQPGGSLRLSCTVSGFSLSTYAMSWVRQAPGKGLEWIGVIASNADTYYASWAKGRFTISRDNSKNTLYLQMNSLRAEDTAVYYCARHPGSAGYGYAVYYAMDPWGQGTLVTVSS VL: DIQMTQSPSSLSASVGDRVTITCQASQKIHYAINWYQQKPGKAPKLLIYGTSYLGGGVPSRFSGSGSGTDFTLTISSLQPEDFATYYCQQGYIVPNSFGGGTKVEIK | binds
